The test system of one experiment is C. neoformans H99. The experiment can be described thus: Biofilm development, XTT reduction trial. It is filed as cell-based, Cryptococcus neoformans. The settings on record: AcM 25 μg/ml, 48 hours at 37° C., vs fungus without treatment, p<0.05. The protocol:
(§1) C. neoformans (H99 and Cap67) and Candida albicans were cultivated in Sabouraud media for 24 hours at 30° C. Cellular suspensions were centrifuged for 5 minutes at 3000 g, washed 3 times in PBC and suspended in minimum media (20 mg/ml thiamin, 30 mm glucose, 26 mM glycine, 20 mM MgSO4, and 58.8 mM KH2PO4). Then, they were added to 96-well plates (100 μl/well—1×10^6 células/ml) and cultivated for 48 hours at 37° C. at presence of AcM (HC6/DD11 and AF1/CC5) and AcM anti-GXM 18B7 (only to H99) at 25 μg/ml concentration, keeping under agitation for 30 minutes, for AcM total homogenization with fungi. As control, drug AmB was used at 1 μg/ml concentration.
(§2) Two analysis systems were performed: in the first, cells were washed, so that non-adhering cells were removed and only cells bonded to biofilm under development remained; in the second system, cells were not washed and all cells adhered or not to substrate were quantified.
(§3) Viable cell metabolic activity in both trials was assessed by the method based on decrease of XTT (2-methoxy-4-nitro-5-sulfophenyl)-5-[(phenylamino) carbonyl]-2H-tetrazolium hydroxide) in spectrophotometer at 492 nm of wavelength.
(§4) AcMs were tested (25 μg/ml) against three fungus species (C. albicans, C. neoformans—H99—and acapsular mutant of C. neoformans—Cap67), with control by AcM anti-GXM 18B7 (25 μg/ml) only to H99. In the first assay (FIGS. 14A and B), cellular suspensions were washed to remove non-adhering cells to substrate. […] In second assay (FIGS. 14C and D), cellular suspensions were not washed, and again AcM inhibited biofilm development (p<0.05) compared to cell not treated with antibodies. In both assays, cell growth was observed.
AcMs were compared to AcM anti-GXM 18B7 concerning biofilm development inhibition.
(Tetrazolium assays rely on reduction of a dye to a coloured formazan, in cell work by metabolically active cells.)

The subject of another experiment is C. neoformans strain H99. The experiment in a line: Survival trial, lethal i.p. challenge. Type of experiment: in vivo, Balb/C line mice. The note with it: synergic group: AcM 85 μg/animal with AmB 0.25 mg/kg. The protocol:
Balb/C line mice (n=7) were lethally challenged via i.p. with 10^5 cells in PBS of C. neoformans (H99) and treated 2 hours later with 100 μl of AmB (2.5 mg/kg and 0.25 mg/kg), 100 μl of AcM (85 μg/ml) and 100 μl of AcM and AmB combined solution (0.25 mg/kg). Control animals were challenged only by C. neoformans (H99) or only with 100 μl of a solution of PBS, AmB (2.5 mg/kg) or AcM (85 μg/ml) without fungus (adapted from Liedke et al.). Survival rate was achieved and analysis was extended up to 90 days after infection, presenting statistical value with p<0.005.
Mice were lethally challenged with inoculant i.p. of 1×10^5 cells of yeast C. neoformans strain H99. After 2 hours, they were treated with PBS (negative control), 85 μg/animal of AcM (HC6/DD11) in isolate form, 0.25 or 2.5 mg/kg of AmB in isolate form, and in synergic form, AcM keeping test concentrations. Treatments were repeated for another two times, with 10-day interval.

A further experiment deals with C. albicans. The experiment can be described thus: Dot Blot against intact cells using PL. Type of experiment: binding, Candida albicans. The note with it: AcM 25 μg/ml; cells in 5 μg/ml PL diluted in base 10 from 10^7 cell/ml; 3 independent experiments. As to the method:
C. neoformans (H99) and Candida albicans in 10^7 cell/ml density until 10 cells/ml were suspended in poly-L-Lysine solution (5 μg/ml in PBS) and 10 μl were loaded in nitrocellulose membranes. Then, the same steps for ELISA were followed, however, 25 μg/ml concentration of AcM anti-chitooligomers. Membrane was cut and deposited in 96-well plates, to which 50 μl TMB was added and incubated for 30 minutes at 37° C. Volume was removed and transferred to a new plate, to which stop reaction was added with HCl 1 N and read with spectrophotometer at 450 nm.
The principle used in this trial was the same of ELISA and was based on the load presented by fungi. As nitrocellulose membrane has negative load, PL was used to check positive load to fungus, and consequently have bond to membrane.
As provided in FIG. 11, it was initially diluted in 5 μg/ml of PL at 10^7 cell/ml concentration and diluted in base 10. In this trial, it was evidenced that AcM HC6/DD11 was capable to bond to C. albicans up to 10^4 cell/ml order, which counters C. neoformans, that was identified to 10^6 cell/ml order. 3 independent experiments were performed to each trial. Example 16.7—Immunofluorescence

For experiment [1], the system named is acapsular mutant of C. neoformans Cap67. The experiment can be described thus: Biofilm development, XTT reduction trial. Type of experiment: cell-based, Cryptococcus neoformans. The note with it: AcM 25 μg/ml, 48 hours at 37° C., vs fungus without treatment, p<0.05. As to the method: as §1, §2, §3, §4
A further experiment concerns Candida albicans. The experiment in a line: Immunofluorescence of AcM anti-chitooligomer against intact cells. Type of experiment: binding. The note with it: AcM 25 μg/mL, 1 h at 37° C.; anti-IgM Alexa 568; calcofluor. As to the method: Fungal cells (10^6 cells)) were fastened (cacodylate paraformolaldehyde buffer 4%; 30 min) and blocked later (PBS/BSA 1%; 1 hour). Then, they were incubated with AcM anti-chitooligomer(25 μg/mL; 1 h at 37° C.) After washing with PBS, cells were incubated with mouse anti-IgM antibody conjugated at Alexa 568 (SIGMA; 1:1000). After PBS washing, cells were incubated with 25 μM of white calcofluor (Invitrogen) and washed again. Cellular suspensions were assembled in glass blades and assessed under microscope Olympus AX70, coupled to camera system (QImaging Retiga 1300) and assessed in QCapture suite V2.46 software.
From reliable and ELISA and Dot Blot trials, biological activity validation tests. Thus, AcMs were used through immunofluorescence (IF), using the pathogen Candida albicans as template. AcMs were efficient at fungal cellular wall labeling, showing the same profile whenever standard marker is used (lectin), data not provided.

A further experiment relates to C. neoformans. The experiment can be described thus: Melanization trial (L-DOPA). The settings on record: concentrations lower than 6.2 μg/ml; p>0.05. Type of experiment: cell-based, Cryptococcus neoformans. The protocol:
C. neoformans cultivation was performed as paragraph and cellular suspension (1×10^6 cells/ml) was cultivated for 72 hours in minimum media supplemented with 1 mM of L-DOPA in 96-well plate of U-shape bottom. Antibodies HC6/DD11 and AF1/CC5 were added to minimum media within 25 to 0.05 μg/ml concentration range. The plate was centrifuged and pigment development quantification was defined densitometrically upon image scanning by iBright FL1000 Invitrogen equipment.
AcM HC6/DD11 e AF1/CC5 established concentrations were 0.2 to 25 μg/ml. L-DOPA was used with substrate to melanization.
Pigmentation in C. neoformans was assessed through brown to black sedimentation observation in 96-well plate bottom. To document pigmentation or inhibition, plates were photographed over white surfaces (clear bottom), to enable differentiation between pigmented and non-pigmented populations. It shall be noted that every AcM dose presents fungal growth, however with negative pigmentation or partial inhibition.

B1: HC6/DD11: murine IgM monoclonal antibody against chitooligomers (chitotriose); VH SEQ ID NO: 15, VL SEQ ID NO: 16 (antibody, listed as Mus musculus, V domains shown)
VH: STGQVKLEESGGGLVQPGGSRKLSCAASGFTFSDYGMAWVRQAPGKGPEWVAFISNLAYSIYYADTVTGRFTISRENAKNTLYLEMSSLRSEDTAMYYCARDYYGSSYWYFDVWGAGTTVTAPC
VL: ATNSCISRGEVTITCSASSSVSYMHWFQQKPGTSPKLWIYSTSNLASGVPARFSGSGSGTSYSLTISRMEAEDAATYYCQQRSSYPLTFGAGTKLELKRADAAPTVSLET
Turning to B1, the “biofilm development (XTT reduction)” value (in the experiment on C. neoformans H99 (non-washed cells); with C. neoformans H99 (washed cells); in experiment [1] (non-washed cells); in experiment [1] (washed cells)) was “reduced biofilm development significantly” throughout. For the same molecule, the “death of infected animals” value in the experiment with C. neoformans strain H99 (followed up to 90 days) is “did not die”. The survival in the experiment on C. neoformans strain H99 (up to 90 days, n=7) is reported as 100%. In addition, the “cell density down to which AcM was capable to bond (Dot Blot)” value with C. albicans is recorded as 10^4 cell/ml. In the experiment on Candida albicans, the “fungal cellular wall labeling by immunofluorescence” value is recorded as “characteristic polar label”. In the experiment with C. neoformans, the “melanization in lower concentrations” value is given as “not significant inhibition”.
